Experimental findings from patent US20230322924A1 (Janssen / Centocor, published 2023) are described below.

Where two headings read alike, the source gives them in different places.

Assay [1] concerns the target T1, human PSMA on cells (LNCaP) (human, UniProt Q04609 1-750).
T1 construct: whole, on cells; also called LNCaP cells
The assay can be described thus: flow cytometry cell binding assay on LNCaP cells. As to the method:
(§1) PSMA×CD3 bispecific antibodies were tested for binding to PSMA positive cell line, LNCAP, to PSMA negative cell line, PC3. To assess the binding capabilities of the PSMA bispecific antibodies, the cell-binding assay was utilized (described previously). Bispecific antibodies were normalized for protein concentration and then incubated with the same number of cells expressing either human or cyno PSMA. The MFI at each concentration was collected by flow cytometry and plotted as a function of concentration. Data was transformed via log 10 and then plotted. Nonlinear regression of binding curves was done to determine EC50s.
Background: A flow cytometer gives signals particle by particle.

Assay [2] concerns the target T1, human PSMA on cells (LNCaP). Kind of assay: flow cytometry cell binding assay on LNCaP cells. The method, then: as §1
This is another data set of the same source.

T1 sequence (Q04609 whole entry): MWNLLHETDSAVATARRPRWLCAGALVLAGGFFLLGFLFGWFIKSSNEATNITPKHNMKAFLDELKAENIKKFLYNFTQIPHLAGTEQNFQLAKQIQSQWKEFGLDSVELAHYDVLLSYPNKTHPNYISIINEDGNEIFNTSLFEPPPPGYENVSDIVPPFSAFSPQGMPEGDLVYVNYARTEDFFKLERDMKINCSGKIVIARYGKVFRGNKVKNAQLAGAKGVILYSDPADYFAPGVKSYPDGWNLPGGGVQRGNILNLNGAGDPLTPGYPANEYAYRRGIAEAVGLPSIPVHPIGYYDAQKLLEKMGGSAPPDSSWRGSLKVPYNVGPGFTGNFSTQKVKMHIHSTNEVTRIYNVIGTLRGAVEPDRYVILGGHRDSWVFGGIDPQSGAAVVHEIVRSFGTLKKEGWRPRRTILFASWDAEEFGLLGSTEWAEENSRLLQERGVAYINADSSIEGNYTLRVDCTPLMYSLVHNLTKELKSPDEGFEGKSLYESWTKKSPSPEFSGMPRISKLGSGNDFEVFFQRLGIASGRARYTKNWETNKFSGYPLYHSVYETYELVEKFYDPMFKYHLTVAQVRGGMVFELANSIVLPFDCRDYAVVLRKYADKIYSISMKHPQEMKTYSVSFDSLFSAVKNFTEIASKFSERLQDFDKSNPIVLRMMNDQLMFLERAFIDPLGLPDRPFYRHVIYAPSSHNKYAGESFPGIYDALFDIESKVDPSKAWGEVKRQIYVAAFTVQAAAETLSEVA

B1: PS3B27 (bispecific antibody)
chain 1: not shown
chain 2: not shown
chain 3: EVQLVESGGGLVQPGGSLRLSCAASGFTFNTYAMNWVRQAPGKGLEWVARIRSKYNNYATYYAASVKGRFTISRDDSKNSLYLQMNSLKTEDTAVYYCARHGNFGNSYVSWFAYWGQGTLVTVSSASTKGPSVFPLAPCSRSTSESTAALGCLVKDYFPEPVTVSWNSGALTSGVHTFPAVLQSSGLYSLSSVVTVPSSSLGTKTYTCNVDHKPSNTKVDKRVESKYGPPCPPCPAPEAAGGPSVFLFPPKPKDTLMISRTPEVTCVVVDVSQEDPEVQFNWYVDGVEVHNAKTKPREEQFNSTYRVVSVLTVLHQDWLNGKEYKCKVSNKGLPSSIEKTISKAKGQPREPQVYTLPPSQEEMTKNQVSLTCLVKGFYPSDIAVEWESNGQPENNYKTTPPVLDSDGSFLLYSKLTVDKSRWQEGNVFSCSVMHEALHNHYTQKSLSLSLGK
chain 4: QTVVTQEPSLTVSPGGTVTLTCRSSTGAVTTSNYANWVQQKPGQAPRGLIGGTNKRAPGTPARFSGSLLGGKAALTLSGVQPEDEAEYYCALWYSNLWVFGGGTKLTVLGQPKAAPSVTLFPPSSEELQANKATLVCLISDFYPGAVTVAWKADSSPVKAGVETTTPSKQSNNKYAASSYLSLTPEQWKSHRSYSCQVTHEGSTVEKTVAPTECS
For the molecule B1, the “EC50 (read off the curve)” value in assay [1] and in assay [2] was about 6 nM throughout.

B2: PS3B75 (bispecific antibody, human IgG4 S228P, kappa, F234A L235A)
heavy: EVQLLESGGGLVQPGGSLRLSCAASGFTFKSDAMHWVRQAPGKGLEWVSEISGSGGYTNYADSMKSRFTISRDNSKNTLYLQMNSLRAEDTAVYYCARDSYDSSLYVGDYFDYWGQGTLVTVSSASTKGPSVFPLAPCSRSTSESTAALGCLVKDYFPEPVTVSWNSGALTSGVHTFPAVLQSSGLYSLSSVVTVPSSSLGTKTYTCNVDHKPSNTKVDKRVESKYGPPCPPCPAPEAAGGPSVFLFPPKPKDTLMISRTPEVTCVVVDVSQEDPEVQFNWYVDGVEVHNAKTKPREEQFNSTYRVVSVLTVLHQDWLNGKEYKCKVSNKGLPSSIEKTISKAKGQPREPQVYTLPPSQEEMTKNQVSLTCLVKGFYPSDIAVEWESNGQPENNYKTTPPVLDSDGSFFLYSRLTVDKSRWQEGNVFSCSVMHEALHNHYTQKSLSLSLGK
light: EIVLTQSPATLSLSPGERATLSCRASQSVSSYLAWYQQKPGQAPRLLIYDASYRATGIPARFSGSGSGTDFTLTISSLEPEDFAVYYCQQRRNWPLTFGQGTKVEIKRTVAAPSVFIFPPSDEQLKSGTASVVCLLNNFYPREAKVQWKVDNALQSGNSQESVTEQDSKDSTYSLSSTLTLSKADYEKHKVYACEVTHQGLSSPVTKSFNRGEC
VH: EVQLVESGGGLVQPGGSLRLSCAASGFTFNTYAMNWVRQAPGKGLEWVARIRSKYNNYATYYAASVKGRFTISRDDSKNSLYLQMNSLKTEDTAVYYCARHGNFGNSYVSWFAYWGQGTLVTVSS
VL: QTVVTQEPSLTVSPGGTVTLTCRSSTGAVTTSNYANWVQQKPGQAPRGLIGGTNKRAPGTPARFSGSLLGGKAALTLSGVQPEDEAEYYCALWYSNLWVFGGGTKLTVL
notes: IgG4 PAA; CD3 arm with F405L, R409K; also called PSMB363 x CD3B219
Take B2: in assay [1], the binding result is “binds”.
